From patent publication US20050136049A1 (TRUBION PHARMACEUTICALS, published 2005)

Target: T1, CD137 (4-1BB) (human, UniProt Q07011 24-255)
T1 construct: whole, on cells; also called CD137 on stimulated human PBMC
Assay: flow immunocytofluorimetry, hybridoma supernatant on anti-CD3 stimulated human PBMC, FITC goat anti-mouse IgG
Description: Binding of 5B9 scFv IgG fusion protein or 5B9 murine monoclonal antibody was detected with FITC conjugated anti-human IgG or anti-mouse IgG, respectively.

T1 sequence (Q07011 24-255): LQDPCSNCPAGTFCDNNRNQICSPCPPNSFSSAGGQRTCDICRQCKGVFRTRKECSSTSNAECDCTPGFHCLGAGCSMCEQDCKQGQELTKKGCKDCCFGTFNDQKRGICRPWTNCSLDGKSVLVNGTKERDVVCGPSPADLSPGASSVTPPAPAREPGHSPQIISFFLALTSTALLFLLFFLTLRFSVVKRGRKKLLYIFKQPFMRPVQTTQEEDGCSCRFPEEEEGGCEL

- binding result: binds
B1: 5B9 monoclonal antibody (antibody, V domains shown)
VH: QVQLKQSGPGLVQSSQSLSITCTVSGFSLTTYAVHWVRQSPGKGLEWLGVIWSGGITDYNAAFISRLSITKDDSKSQVFFKMNSLQPNDTAIYYCARNGGDNYPYYYAMDYWGQGTSVTVSS
VL: DIVMTQAAFSNPVTLGTSASISCRSSKSLLHSNGITYLYWYLQKPGQSPQLLIYQMSNLASGVPDRFSSSGSGTDFTLRISRVEAEDVGVYYCAQNLELPLTFGAGTKLELKR
notes: also called 5B9 murine monoclonal antibody
